Results: patent publication US20230346885A1 (published 2023)
Positions count from the first letter of the chain named.

B1: TCR of SEQ ID NOs 315 and 316 (TCR, V domains shown)
Valpha: KQEVTQIPAALSVPEGENLVLNCSFTDSAIYNLQWFRQDPGKGLTSLLLIQSSQREQTSGRLNASLDKSSGRSTLYIAASQPGDSATYLCAVSPRSNDYKLSFGAGTTVTVRA
Vbeta: NAGVTQTPKFRILKIGQSMTLQCTQDMNHNYMYWYRQDPGMGLKLIYYSVGAGTTDKGEVPNGYNVSRLNKREFSLRLESAAPSQTSVYFCASSATRRGDYGYTFGSGTRLTVV
B2: TCR of SEQ ID NOs 335 and 336 (TCR, V domains shown)
Valpha: B1 Valpha with S93R, P94H, R95L
Vbeta: NAGVTQTPKFQVLKTGQSMTLQCAQDMNHEYMSWYRQDPGMGLRLIHYSVGAGITDQGEVPNGYNVSRSTTEDFPLRLLSAAPSQTSVYFCASKRGFDEGSPLHFGNGTRLTVT
B3: TCR of SEQ ID NOs 325 and 326 (TCR, V domains shown)
Valpha: QKEVEQNSGPLSVPEGAIASLNCTYSDRGSQSFFWYRQYSGKSPELIMFIYSNGDKEDGRFTAQLNKASQYVSLLIRDSQPSDSATYLCAVRTPSGSARQLTFGSGTQLTVLP
Vbeta: DAGVTQSPTHLIKTRGQHVTLRCSPKSGHDTVSWYQQALGQGPQFIFQYYGEEERQRGNFPDRFSGHQFPNYSSELNVNALLLGDSALYLCASSLGAGGGHSGNTIYFGEGSWLTVV
B4: TCR of SEQ ID NOs 323 and 324 (TCR, V domains shown)
Valpha: KQEVTQIPAALSVPEGENLVLNCSFTDSAIYNFQWFRQDPGKGLTSLLLIQSSQREQTSGRLNASLDKSSGRSTLYIAASQPGDSATYLCAAHPATGANSKLTFGKGITLSVRP
Vbeta: NAGVTQTPKFQVLKTGQGMTLQCAQDMNHNSMYWYRQDPGMGLRLIYYSASEGTTDKGEVPNGYNVSRLNKREFSLRLESAAPSQTSVYFCASSEASGSNSPLHFGNGTRLTVT
B5: TCR of SEQ ID NOs 329 and 330 (TCR, V domains shown)
Valpha: KQEVTQIPAALSVPEGENLVLNCSFTDSAIYNLQWFRQDPGKGLTSLLLIQSSQREQTSGRLNASLDKSSGRSTLYIAASQPGDSATYLCAVQGYGTALIFGKGTTLSVSS
Vbeta: NAGVTQTPKFQVLKTGQSMTLQCAQDMNHEYMSWYRQDPGMGLRLIHYSVGAGITDQGEVPNGYNVSRSTTEDFPLRLLSAAPSQTSVYFCASSQGPYMNTEAFFGQGTRLTVV
B6: TCR of SEQ ID NOs 313 and 314 (TCR, V domains shown)
Valpha: KQEVTQIPAALSVPEGENLVLNCSFTDSAIYNLQWFRQDPGKGLTSLLLIQSSQREQTSGRLNASLDKSSGRSTLYIAASQPGDSATYLCAVSNYGGSQGNLIFGKGTKLSVKP
Vbeta: NAGVTQTPKFRVLKTGQSMTLLCAQDMNHEYMYWYRQDPGMGLRLIHYSVGEGTTAKGEVPDGYNVSRLKKQNFLLGLESAAPSQTSVYFCASTHWGRDSPLHFGNGTRLTVT
B7: TCR of SEQ ID NOs 331 and 332 (TCR, V domains shown)
Valpha: KQEVTQIPAALSVPEGENLVLNCSFTDSAIYNLQWFRQDPGKGLTSLLLIQSSQREQTSGRLNASLDKSSGRSTLYIAASQPGDSATYLCAAKAAGNKLTFGGGTRVLVKP
Vbeta: NAGVTQTPKFQVLKTGQSMTLQCAQDMNHNSMYWYRQDPGMGLRLIYYSASEGTTDKGEVPNGYNVSRLNKREFSLRLESAAPSQTSVYFCASSESLGVTGTAFFGQGTRLTVV
B8: TCR of SEQ ID NOs 333 and 334 (TCR, V domains shown)
Valpha: KQEVTQIPAALSVPEGENLVLNCSFTDSAIYNLQWFRQDPGKGLTSLLLIQSSQREQTSGRLNASLDKSSGRSTLYIAASQPGDSATYLCAVKKDAGNKLTFGGGTRVLVKP
Vbeta: B7 Vbeta with S75P, E79L, E95R, S96R, V99A, T100S, G101S, T102E
B9: TCR of SEQ ID NOs 327 and 328 (TCR, V domains shown)
Valpha: GNSVTQMEGPVTLSEEAFLTINCTYTATGYPSLFWYVQYPGEGLQLLLKATKADDKGSNKGFEATYRKETTSFHLEKGSVQVSDSAVYFCAPHTDKLIFGTGTRLQVFP
Vbeta: DSGVTQTPKHLITATGQRVTLRCSPRSGDLSVYWYQQSLDQGLQFLIQYYNGEERAKGNILERFSAQQFPDLHSELNLSSLELGDSALYFCASSGGTGDGYTFGSGTRLTVV

Assays:
Experiment in all cases: binding, other
BRDT peptide on HLA = target: T1, BRDT peptide on HLA (human)
T1 peptide: EMFPKFTEV

CLDN6 peptide on HLA [1] = target: T2, CLDN6 peptide on HLA (human)
T2 peptide: VLTSGIVFV

CALHM3 peptide on HLA = target: T3, CALHM3 peptide on HLA (human)
T3 peptide: ALLDGKCFV

CLDN6 peptide on HLA [2] = target: T4, CLDN6 peptide on HLA (human)
T4 peptide: TLIPVCWTA

| Binder | binding result (CALHM3 peptide on HLA) | binding result (CLDN6 peptide on HLA [2]) | other results |
| --- | --- | --- | --- |
| B1 |  |  | binding result (BRDT peptide on HLA): recognises |
| B2 |  |  | binding result (CLDN6 peptide on HLA [1]): recognises |
| B3 | recognises |  |  |
| B4 | recognises |  |  |
| B5 |  | recognises |  |
| B6 |  |  | binding result (BRDT peptide on HLA): recognises |
| B7 |  | recognises |  |
| B8 |  | recognises |  |
| B9 | recognises |  |  |
